In PMC9298306, “Controlling Enzymatic Activity by Modulating the Oligomerization State via Chemical Rescue and Optical Control” (Chembiochem, 2021):
Positions count from the first letter of the chain named. In names and notes the source's numbering stands. One block for each molecule: values may come before it.

Assays:
[1] = target: mtGGGPS_(C194A)_K146C^+Am (Methanothermobacter thermautotrophicus) (UniProt O26652)
[2] = target: mtGGGPS_(C194A)_K146C^+Am (Methanothermobacter thermautotrophicus) (UniProt O26652); assay: SEC-MALS; analytical SEC (Superdex 200 Increase 10/300 GL) in combination with static light scattering (right-angle light scattering and refractive index detectors); 40 μM subunit concentration; 50 mM potassium phosphate, pH 7.5, 300 mM KCl; room temperature (approx. 23 °C)
[3] = target: geranylgeranylglyceryl phosphate synthase from Methanothermobacter thermautotrophicus, wild type (Methanothermobacter thermautotrophicus) (UniProt O26652); assay: as above
[4] = target: mtGGGPS_(C194A) (Methanothermobacter thermautotrophicus) (UniProt O26652); assay: as above
[5] = target: T1, mtGGGPS (Methanothermobacter thermautotrophicus, UniProt O26652, K143C/C191A, form not given); assay: coupled pyrophosphate/phosphate detection at […] nm (PPase, PNPase, xanthine oxidase), G1P-dependent; format: biochemical; conditions: 11 μM GGPP, 10 mM MgCl2, pH 8.0, 40 °C, 0.2 % Tween80; without bromoethylamine (−Am), dimer
T1 construct: gene MTH_552; His-tagged, expressed in E. coli BL21-Gold(DE3); hexamer (trimer of dimers); C194A/K146C variant is a dimer unless rescued

[6] = system: T2, RGGGPS (AncGGGPS2_N4_IF_n12); assay: as above; format: biochemical; conditions: 11 μM GGPP, 10 mM MgCl2, pH 8.0, 40 °C, 0.2 % Tween80
T2 construct: His-tagged, from E. coli; hexamer

[7] = substrate: O=P(O)(O)OC[C@@H](O)CO; assay: purified protein; format: biochemical, Methanothermobacter thermautotrophicus; conditions: 11 μM GGPP, 10 mM MgCl2, pH 8.0, 40 °C, 0.2 % Tween80

T1 sequence (O26652 whole entry K143C/C191A, form open): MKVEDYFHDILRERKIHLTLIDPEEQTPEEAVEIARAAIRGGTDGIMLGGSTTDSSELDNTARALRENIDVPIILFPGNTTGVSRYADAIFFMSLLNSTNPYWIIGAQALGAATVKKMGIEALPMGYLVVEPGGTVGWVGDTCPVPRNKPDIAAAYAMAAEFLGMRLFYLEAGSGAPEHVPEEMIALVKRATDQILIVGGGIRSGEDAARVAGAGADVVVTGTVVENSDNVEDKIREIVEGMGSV

kcat/KM, photometric assay of the GGGPS reaction at 40 °C [1]: 192000 M⁻¹ s⁻¹
percent in the hexameric state [2]: 100%
stoichiometry N [2]: 6
Molecule: mtGGGPS_(C194A)_K146C^+Am (from UniProt O26652 1-245) (enzyme)

stoichiometry N [3]: 6
Molecule: geranylgeranylglyceryl phosphate synthase from Methanothermobacter thermautotrophicus, wild type (from UniProt O26652 1-245) (enzyme)

stoichiometry N [4]: 6
Molecule: mtGGGPS_(C194A) (from UniProt O26652 1-245) (enzyme)

Km [5]: 63.4 ± 5.8 µM
Km [6]: 14.2 ± 2.2 µM
Molecule: O=P(O)(O)OC[C@@H](O)CO [G1P, glycerol 1‐phosphate]

kcat/KM, photometric assay of the GGGPS reaction at 40 °C [1]: 550 M⁻¹ s⁻¹
stoichiometry N [2]: 2
Molecule: mtGGGPS_(C194A)_K146C^−Am (from UniProt O26652 1-245) (enzyme)

B1: mtGGGPS (Methanothermobacter thermautotrophicus str. Delta H) (protein)
chain: MKVEDYFHDILRERKIHLTLIDPEEQTPEEAVEIARAAIRGGTDGIMLGGSTTDSSELDNTARALRENIDVPIILFPGNTTGVSRYADAIFFMSLLNSTNPYWIIGAQALGAATVKKMGIEALPMGYLVVEPGGTVGWVGDTKPVPRNKPDIAAAYAMAAEFLGMRLFYLEAGSGAPEHVPEEMIALVKRCTDQILIVGGGIRSGEDAARVAGAGADVVVTGTVVENSDNVEDKIREIVEGMGSV
notes: His-tagged, expressed in E. coli BL21-Gold(DE3); hexamer (trimer of dimers); C194A/K146C variant is a dimer unless rescued
Km [7]: 2.0 ± 0.3 µM
kcat [7]: 0.23 ± 0.005 s⁻¹
kcat/Km [7]: 115000 ± 17000 M⁻¹ s⁻¹

B2: mtGGGPS (Methanothermobacter thermautotrophicus str. Delta H; C191A) (protein)
chain: B1 chain with C191A
notes: as for B1
Km [7]: 3.3 ± 0.6 µM
kcat [7]: 0.29 ± 0.01 s⁻¹
kcat/Km [7]: 88000 ± 18000 M⁻¹ s⁻¹
